Measured values from the supplement of paper PMC9170038.

Tested on: MS2 coat protein
Assay: apparent KD of MS2 coat protein; designed switch direction (-1 OFF switch, 1 ON switch): -1; higher = weaker reporter binding
Summary of the method: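 The buffer was Tris-HCl pH 7.5 with KCl, MgCl2, BSA, DTT, tRNA and Tween-20. In it, SNAP-549-labelled MS2 coat protein was titrated in doubling steps from 0.7 or 1.5 nM to 3 µM over chip-bound RNA switches transcribed by stalled E. coli RNA polymerase on Illumina chips. Apparent KD is the per-design median over clusters of curve fits to normalised fluorescence.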

[1] = input ligand: microRNA oligo, concentration not stated
[2] = Eterna round: R95, input ligand: FMN 200 uM
[3] = Eterna round: R95, input ligand: microRNA oligo, concentration not stated
[4] = Eterna round: R95, input ligand: none

Sequence | apparent KD of MS2 coat protein (input ligand: FMN 200 uM) [nM] | apparent KD of MS2 coat protein [1] [nM] | apparent KD of MS2 coat protein (input ligand: none) [nM] | apparent KD of MS2 coat protein [2] [nM] | apparent KD of MS2 coat protein [3] [nM] | apparent KD of MS2 coat protein [4] [nM]
GAGAGGAGUGUAGGAUAUUUAAGGGAGGAGGAGGGAGAAGGACAUGAGGAUCACCCAUGUAGGAAGAGAGGAGGAGUACAGGAG [Default title] (Eterna round: R96, puzzle: Exclusion NG 1) | 46.1 | 19.3 | 32.3 |  |  | 
CGUACUGAAGUUAGGAUAUUGUCUCGGAUACGAAACAAGAAGGGACAUGAGGAUCACCCAUGUAGACAGUACGA [Malc #30 mod 4] (puzzle: Brourd's mod of Exclusion 4) |  |  |  | 24.7 | 27.1 | 27.7
ACAUUGUAUGUGAGGAUAUCGAUGGGAUGGGUUGUCGAGAAGGCACAUGAGGAUCACCCAUGUAAGGGACAGCA [JR_BMEx4_Sub029] (Eterna round: R97, puzzle: Brourd's mod of Exclusion 4) | 295 |  | 83.1 |  |  | 
AGCUAGUCAGGAUAUUCUAAAUAUUACAUGAGGAUCACCCAUGUGAAUGGACAAGGGUGUGAAGAAGGGACUAGCG [Omei Ex5 A12] (Eterna round: R97, puzzle: Exclusion 5) | 262 |  | 959 |  |  | 
AGUAACAGAGGAUAUACUAUUUUAUGUGUUUGUUAUUUUGAACAUGAGGAUCACCCAUGUAGAAGGCUGAAUAA [JMF 93] (puzzle: Exclusion 2) |  |  |  |  | 24 | 
GCGGAGAGAGAAGGAUAUUGAAAUGCUUCUACAUGAGGAUCACCCAUGUUCGGCAGACAUGGGACCAAGAAGGUCUAUGUCGCG [Eternabot solution 27] (Eterna round: R96, puzzle: Exclusion NG 2) | 70.2 | 40.4 | 55.4 |  |  | 
AUAUUACGAGGAUAUCGUUUUUUUCACAUGAGGAUCACCCAUGUUAUUUAUGUUUCGUUUCGAGAAGGCGUAAGUU [JR_E5_Sub069] (puzzle: Exclusion 5) |  |  |  |  | 22.3 | 
CCUCCCUGAGGAUAUCCACCCUCAUACAUGAGGAUCACCCAUGUUCAACCCUGGGUUCCCGGAGAAGGCAGUUUCC [Megrez-2.4] (Eterna round: R97, puzzle: Exclusion 5) | 226 |  | 235 |  |  | 
AAGAAGAAGUAAGGAUAUGAAGAUUUGGUGAUAACAUGAGGAUCACCCAUGUGAAAACAAUAAAAUCAGAAGGUAUAAGAAGAA [AK ExNG2-2] (Eterna round: R96, puzzle: Exclusion NG 2) | 57.6 | 37.3 | 58 |  |  | 
GAGAAGGUAGGAUAUACGAAUAAAUAGGGUAGUAAUAAUACACAUGAGGAUCACCCAUGUAGAAGGACCAAGAG [Mat - Exclusion 2 - Mod of my Tesla design - D39] (puzzle: Exclusion 2) |  |  |  | 38.1 | 22.8 | 25
AGGAAGCAAGGAUAUACGAGGAGAAGGUGGAGAUUUAAAGGACAUGAGGAUCACCCAUGUAGAAGGUGCGAGAA [JR_Exclu2_Sub046] (puzzle: Exclusion 2) |  |  |  | 79.6 | 44.3 | 50.4
CUGAGAUCAGGAUAUACAUGAGGAUCACCCAUGUAAAGUAGCUUGCGUACAGGCAGAUGUAGAAGGGAUUUCGG [Mod of JL 5 - Jieux - Exclusion 3] (Eterna round: R97, puzzle: Exclusion 3) | 29.7 |  | 26.5 |  |  | 
GAGUGAGCGUGAGGAAUAUACAUGAGGAUCACCCAUGUUUGCUAAUAUAUUGCUCGUCUUAUAACAACAAUUAACUG [Mod-hoo-honey#ab] (Eterna round: R97, puzzle: Sensor, turn-off variant 1) | 12.6 |  | 13.7 |  |  | 
GCCAGAGCAGGAUAUUCAAUAAUCCACAUGAGGAUCACCCAUGUCCAGCGAAAGCUGGAGGGAGAAGGGCUCUGGC [Fiskers Ex 5 - 7] (puzzle: Exclusion 5) |  |  |  |  | 73.4 | 
CGCUGGACAGGAUAUGUUCUUGGGCACUUGAGGAUCACCCAAGUCAUCGGGACAUCAGGCACAGAAGGGUUGUUGG [salish99_ex5_r4_028] (Eterna round: R97, puzzle: Exclusion 5) | 25.5 |  | 27.1 |  |  | 
UAAAAGGUAGGAUAUACGAAAAAAAAGGGUAGAAAAAAAACACAUGAGGAUCACCCAUGUAGAAGGACCAAAAC [salish99_ex2_r3_047] (puzzle: Exclusion 2) |  |  |  | 103 | 33.2 | 30.3
GCACGGAGUGCAGGAUAUCUGUGCGAUUAGCUCAGAGAAGGGCACAUGAGGAUCACCCAUGUGUAUAAAACACAAAAUCCGUGC [Eli exng1 - 066] (Eterna round: R96, puzzle: Exclusion NG 1) | 22.1 | 10.2 | 14.5 |  |  | 
UAUGUGUCAGGAUAUUAAUUAUAGGAGAAUGUGACGAUGAUUAAGAAGGGACAUGAGGAUCACCCAUGUUCAUC [JR_Ex4_Sub025] (Eterna round: R97, puzzle: Exclusion 4) | 21.3 |  | 19 |  |  | 

Sequence | apparent KD of MS2 coat protein (input ligand: FMN 200 uM) [nM] | apparent KD of MS2 coat protein [1] [nM] | apparent KD of MS2 coat protein (input ligand: none) [nM] | apparent KD of MS2 coat protein [2] [nM] | apparent KD of MS2 coat protein [3] [nM] | apparent KD of MS2 coat protein [4] [nM]
GAAGCACAUGAGGAUCACCCAUGUGAGGAUAUCCGUCUGGUCCGGCCGGACCAGUACCGGAGAAGGCGCGUAAA [Excls1-Ia] (puzzle: Exclusion 1) |  |  |  |  | 40.1 | 
AUCUUGUAAGGAUAUCUGACAAGUGACGAAAGUCACAGUUCAGAGAAGGUACAUGAGGAUCACCCAUGUAGAAC [Ex4-3: 41] (puzzle: Exclusion 4) |  |  |  |  | 15.9 | 
AGUACUAACACGAAAGUGUUAGUACAAUAAGCUUGUAUUACAUGAGGAUCACCCAUGUCCUCAUAAGCUCGUCUUAU [Mat - Sensor v3 - Turn-off var 2 - D46] (puzzle: Sensor v3, turn-off variant 2) |  |  |  | 316 | 14 | 881
AAUUUAACAUAGGAUAUCGAAUUUAUUAUUUAACGAGAAGGAUGAACAUGAGGAUCACCCAUGUGGUAUCAUGG [Mat - Exclusion 6 - JL Mod - D22] (puzzle: Exclusion 6) |  |  |  | 100 | 109 | 174
GUCCGACAUGAGGAUCACCCAUGUGAGGAUAUGCGAUUAGCUGCUAGGUAGUUAGUAUGUAGAAGGCGCAUGAA [EX1 #76] (Eterna round: R97, puzzle: Exclusion 1) | 21.9 |  | 24.5 |  |  | 
UCUCUUGGGCAAGGAUAUCCUGCGCGGUUCCGGUUCGUGUCUGUCACAUGAGGAUCACCCAUGUGGGAGAAGGUGCCUGCGGUG [Design 75] (Eterna round: R96, puzzle: Exclusion NG 2) | 32.5 | 15.8 | 17.3 |  |  | 
UUAGGCUGAAGAUCAAUUAAUUAACAUGAGGAUCACCCAUGUAAGGAUAUCAGCUCGUUUAGAGCUGAGAAGGUACAUGCAGCC [ExNG3/18-A2] (Eterna round: R96, puzzle: Exclusion NG 3) | 351 | 121 | 118 |  |  | 
ACAUGUGUUGUAGGAUAUAGUGGACAUGAGGAUCACCCAUGUUGAUUCAUGUCUAUGGAAACGUACUAGAAGGACGACAAUAUG [Ex NG2 #18] (Eterna round: R96, puzzle: Exclusion NG 2) | 806 | 875 | 1050 |  |  | 
GUGAUCUAUCAUGUAAUGAACAUGAGGAUCACCCAUGUAGGCAGGUUUUUUGCUCGUCACAUAAUAAGAUAGAUCAC [Antenna 20 - Jieux - Sensor, turn-off variant 1] (Eterna round: R97, puzzle: Sensor, turn-off variant 1) | 18.6 |  | 24.2 |  |  | 
ACGACCUGAGGAUAUACAUGAGGAUCACCCAUGUAUGCAACAGCCGGGAAAUCCCGAUGUAGAAGGCAGGAAAA [Eternabot (Original) Solution 26] (Eterna round: R97, puzzle: Exclusion 3) | 252 |  | 32.2 |  |  | 
AUCAUGGGAGGAUAUCACCUAUGUUACAUGAGGAUCACCCAUGUGAGACUAAAUGACUGCUGAGAAGGCUCAACGC [Eternabot (Original) Solution 25] (Eterna round: R97, puzzle: Exclusion 5) | 205 |  | 234 |  |  | 
GCUUCCCAUGUGAGGAUAUGUAGGGUUAACCCGAGGCAGAAGGCACAUGAGGAUCACCCAUGUUAAAACUUCUA [Xecera] (puzzle: Brourd's mod of Exclusion 4) |  |  |  |  | 30.8 | 
AAUAACAGAGGAUAUACUAUUUUAUGUGUUUAUUGUUUUAAACAUGAGGAUCACCCAUGUAGAAGGCUGAAUAA [JMF 16] (puzzle: Exclusion 2) |  |  |  |  | 26.8 | 
AUAAUGUAAGGAUAUCAGUCGUACAGCGAUAGCUGUACGACUGAGAAGGUACAUGAGGAUCACCCAUGUGAUCA [E4/8-A4] (Eterna round: R97, puzzle: Exclusion 4) | 666 |  | 3680 |  |  | 
UUGCAGUCGUCAGGAUAUAGUAUUACGGCCAUUUAUUUUUUCAUACAUGAGGAUCACCCAUGUCGCUAGAAGGGAUUAUCGAUU [salish99_ExNG2_r04_102] (Eterna round: R96, puzzle: Exclusion NG 2) |  | 38.9 |  |  |  | 
AUGUUACAUGAGGAUCACCCAUGUCAGGAUAUCUAUCAUAGCAUAGAAAUAUGCGGGUAGAGAAGGGACUAUCC [ChP Ext 10-04-2015 #5] (puzzle: Exclusion 1) |  |  |  |  | 14.7 | 
GUUUCGAGACGGAGAUCCGACAUGAGGAUCACCCAUGUCUCCCAAGCUUUUUGCUCGUCUUAUACUCCUCUGUUCUC [Elimod 47 - Jieux - Sensor, turn-off variant 1] (Eterna round: R97, puzzle: Sensor, turn-off variant 1) | 18 |  | 19.4 |  |  | 
